Positions count from the first letter of the chain named. Names may count otherwise.
Substrate: Nc1nc2c(ncn2[C@H]2C[C@H](O)[C@@H](COP(=O)(O)OP(=O)(O)OP(=O)(O)O)O2)c(=O)[nH]1
Assay: purified protein
Type: biochemical, Thermococcus kodakarensis
Settings: matched primer-template C-G (prothrombin factor II), Tris-HCl pH 8, 1.5 mM MgCl2, temperature not stated for kinetics (55 °C in primer extension assay)

B1: KOD pol wildtype (3'-5'-exonuclease deficient Thermococcus kodakaraensis DNA polymerase) (Thermococcus kodakarensis KOD1; D141A/E143A) (protein)
chain 1: MILDTDYITEDGKPVIRIFKKENGEFKIEYDRTFEPYFYALLKDDSAIEEVKKITAERHGTVVTVKRVEKVQKKFLGRPVEVWKLYFTHPQDVPAIRDKIREHPAVIDIYEYDIPFAKRYLIDKGLVPMEGDEELKMLAFAIATLYHEGEEFAEGPILMISYADEEGARVITWKNVDLPYVDVVSTEREMIKRFLRVVKEKDPDVLITYNGDNFDFAYLKKRCEKLGINFALGRDGSEPKIQRMGDRFAVEVKGRIHFDLYPVIRRTINLPTYTLEAVYEAVFGQPKEKVYAEEITTAWETGENLERVARYSMEDAKVTYELGKEFLPMEAQLSRLIGQSLWDVSRSSTGNLVEWFLLRKAYERNELAPNKPDEKELARRRQSYEGGYVKEPERGLWENIVYLDFR
chain 2: SLYPSIIITHNVSPDTLNREGCKEYDVAPQVGHRFCKDFPGFIPSLLGDLLEERQKIKKKMKATIDPIERKLLDYRQRAIKILAN
chain 3: SYYGYYGYARARWYCKECAESVTAWGREYITMTIKEIEEKYGFKVIYSDTDGFFATIPGADAETVKKKAMEFLKYINAKLPGALELEYEGFYKRGFFVTKKKYAVIDEEGKITTRGLEIVRRDWSEIAKETQARVLEALLKDGDVEKAVRIVKEVTEKLSKYEVPPEKLVIHEQITRDLKDYKATGPHVAVAKRLAARGVKIRPGTVISYIVLKGSGRIGDRAIPFDEFDPTKHKYDAEYYIENQVLPAVERILRAFGYRKEDLRYQKTRQVGLSAWLKPKGT
notes: mature intein-free polymerase expected (precursor holds two inteins); pET21a, E. coli BL21(DE3), Ni resin
B1 gave a Km of 0.168 ± 0.04 µM, a kcat of 0.81 ± 0.12 s⁻¹ and a kcat/Km of 4.8e+06 ± 1.9e+06 M⁻¹ s⁻¹.

B2: KOD pol wildtype (3'-5'-exonuclease deficient Thermococcus kodakaraensis DNA polymerase) (Thermococcus kodakarensis KOD1; D141A/E143A/R1398C) (protein)
chain 1: B1 chain 1
chain 2: B1 chain 2
chain 3: B1 chain 3 with R10C
notes: as for B1
Protein B2 has a Km of 96 ± 21 µM, a kcat of 8.3 ± 0.6 s⁻¹ and a kcat/Km of 90000 ± 20000 M⁻¹ s⁻¹.
